These results are taken from publication PMC2602864.

The target of this experiment is EcoR124I core methyltransferase (HsdM2HsdS1) (not stated (hsd genes of the IncFIV plasmid R124, carried in E. coli)) (UniProt P10484).
Chain of UniProt P10484 (P10484 whole entry, chain 1 of 2): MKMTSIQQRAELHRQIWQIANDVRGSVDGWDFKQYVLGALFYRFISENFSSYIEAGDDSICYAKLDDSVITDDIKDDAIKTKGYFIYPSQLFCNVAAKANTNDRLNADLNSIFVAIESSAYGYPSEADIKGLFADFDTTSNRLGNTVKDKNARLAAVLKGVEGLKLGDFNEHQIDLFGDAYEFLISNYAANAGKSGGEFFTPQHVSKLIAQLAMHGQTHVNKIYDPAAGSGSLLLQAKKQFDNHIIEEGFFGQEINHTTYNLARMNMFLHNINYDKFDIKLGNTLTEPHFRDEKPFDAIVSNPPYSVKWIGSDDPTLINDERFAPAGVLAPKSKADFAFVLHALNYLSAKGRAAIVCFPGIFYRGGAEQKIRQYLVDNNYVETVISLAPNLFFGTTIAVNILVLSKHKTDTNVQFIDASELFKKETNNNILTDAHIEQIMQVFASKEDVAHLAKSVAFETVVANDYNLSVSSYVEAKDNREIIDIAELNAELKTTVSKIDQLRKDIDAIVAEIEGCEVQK
Chain of UniProt P10484 (P10485 whole entry, chain 2 of 2, further chain): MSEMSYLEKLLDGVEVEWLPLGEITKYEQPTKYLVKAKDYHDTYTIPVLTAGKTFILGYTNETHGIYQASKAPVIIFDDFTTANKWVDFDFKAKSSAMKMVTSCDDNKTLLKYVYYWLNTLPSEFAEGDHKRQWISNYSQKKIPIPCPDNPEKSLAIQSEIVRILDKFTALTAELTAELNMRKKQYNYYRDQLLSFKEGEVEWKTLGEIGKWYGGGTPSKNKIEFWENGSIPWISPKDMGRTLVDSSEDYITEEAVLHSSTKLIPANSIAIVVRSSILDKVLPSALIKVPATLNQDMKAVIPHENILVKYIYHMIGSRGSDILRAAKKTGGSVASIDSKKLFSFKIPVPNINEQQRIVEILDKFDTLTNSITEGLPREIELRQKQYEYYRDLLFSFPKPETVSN

B1: EcoR124I HsdR subunit, wild type (enzyme)
chain: MTHQTHTIAESNNFIVLDKYIKAEPTGDSYQSESDLERELIQDLRNQGYEFISVKSQSAMLANVREQLQNLNGVVFNDSEWRRFTEQYLDNPSDGILDKTRKIHIDYICDFIFDDERLENIYLIDKKNLMRNKVQIIQQFEQAGSHANRYDVTILVNGLPLVQIELKKRGVAIREAFNQIHRYSKESFNSENSLFKYLQLFVISNGTDTRYFANTTKRDKNSFDFTMNWAKSDNTLIKDLKDFTATCFQKHTLLNVLVNYSVFDSSQTLLVMRPYQIAATERILWKIKSSFTAKNWSKPESGGYIWHTTGSGKTLTSFKAARLATELDFIDKVFFVVDRKDLDYQTMKEYQRFSPDSVNGSENTAGLKRNLDKDDNKIIVTTIQKLNNLMKAESDLPVYNQQVVFIFDECHRSQFGEAQKNLKKKFKRYYQFGFTGTPIFPENALGSETTASVFGRELHSYVITDAIRDEKVLKFKVDYNDVRPQFKSLETETDEKKLSAAENQQAFLHPMRIQEITQYILNNFRQKTHRTFPGSKGFNAMLAVSSVDAAKAYYATFKRLQEEAANKSATYKPLRIATIFSFAANEEQNAIGEISDETFDTSAMDSSAKEFLDAAIREYNSHFKTNFSTDSNGFQNYYRDLAQRVKNQDIDLLIVVGMFLTGFDAPTLNTLFVDKNLRYHGLMQAFSRTNRIYDATKTFGNIVTFRDLERSTIDAITLFGDKNTKNVVLEKSYTEYMEGFTDAATGEAKRGFMTVVSELEQRFPDPTSIESEKEKKDFVKLFGEYLRAENILQNYDEFATLKALQQIDLSDPVAVEKFKAEHYVDDEKFAELQTIRLPADRKIQDYRSAYNDIRDWQRREKEAEKKEKSTTDWDDVVFEVDLLKSQEINLDYILGLIFEHNRQNKGKGEMIEEVKRLIRSSLGNRAKEGLVVDFIQQTNLDDLPDKASIIDAFFTFAQREQQREAEALIKEENLNEDAAKRYIRTSLKREYATENGTELNETLPKLSPLNPQYKTKKQAVFQKIVSFIEKFKGVGGKI
B1 had a mean lifetime of a DNA translocation event, R1 complex (one HsdR on the MTase), magnetic tweezers of 0.95 s.
